Data on 20 sequences can be found in the DeepSol protein solubility set.

The series is described as follows: soluble on expression in E. coli; label from the status in PepcDB or PDB records.
Turning to “MGSDKIHHHHHHMLQVTDVSLRFGDRKLFEDVNIKFTEGNCYGLIGANGAGKSTFLKILSGELDSQTGHVSLGKNERLAVLKQDHYAYEDERVLDVVIKGHERLYEVMKEKDEIYMKPDFSDEDGIRAAELEGEFAEMNGWNAEADAANLLSGLGIDPTLHDKKMAELENNQKIKVLLAQSLFGEPDVLLLDEPTNGLDIPAISWLEDFLINFDNTVIVVSHDRHFLNNVCTHIADLDFGKIKVYVGNYDFWYQSSQLAQKMAQEQNKKKEEKMKELQDFIARFSANASKSKQATSRKKQLEKIELDDIQPSSRRYPFVKFTPEREIGNDLLIVQNLSKTIDGEKVLDNVSFTMNPNDKAILIGDSEIAKTTLLKILAGEMEPDEGSFKWGVTTSLSYFPKDNSEFFEGVNMNLVDWLRQYAPEDEQTETFLRGFLGRMLFSGEEVKKKASVLSGGEKVRCMLSKMMLSSANVLLLDEPTNHLDLESITAVNDGLKSFKGSIIFTSYDFEFINTIANRVIDLNKQGGVSKEIPYEEYLQEIGVLK”, the “soluble on expression in E. coli” value is “not soluble”.

As to “MQLSRQDEPLYLGLAETLRDELAGYQPGDYLPAEFQLAERFSVNRHTIRRAVDELVREGSVLRRQGKGTQVLERPLIYPMQADSAYSQSLSAQGVGVEAILLLRRECQASHEDALHLGLAEHAPVIELQTLRKLDGQAVSLIFHRYSAVYHELLADYQGGSVRQYLAECGLPLSRAQSLIGARLPSREEAGLLLMPRHMPALTVLTVSCDGAGQPVELSRSVSRSDRFQYQVATAIPTR”, the “soluble on expression in E. coli” value was “not soluble”.

As to “VKPPHGFQKKMKLEVVDKRNPMFIRVATVADTDDHRVKVHFDGWNNCYDYWIDADSPDIHPVGWCSKTGHPLQPPLSPLELMEASEHGGCSTPG”, the “soluble on expression in E. coli” value is “soluble”.

Consider “MSLDLKQVLRATMVKGVLQRGTIALGNDPGVLRIYTRAACPGTLAKNYLGEWCFASKVAEEASPRVHVVGDIHGNIEALFKVLIRTKLFILDEPMSNESYEGYEDPEEPFSVKGWGVHPRYAVEGTQKYIVKDYDHIYLFLGDYVDRGSFSIECLVVLLGLKILFPNAVYLLRGNHETRACLQRGQLFQELIHKYEYVEASKITDRLLRLFDALPTCALINDYVFAVHAGIYSKNASLADIEKYCTKRAPCSKFHTKAPYFDPLHNMLWADFVEDQPAIDLSQDNRRRNTGIVFYPSTVKEFLKNEGLGLFIRGHQSTPFGVSISQTGKLVTVSINSDSTPTWLGAVLTLVHPADADASESISPVNLASEGHHHHHH”, for which the “soluble on expression in E. coli” value was “not soluble”.

Consider “GAMESEEPVFSLEQNRDDAMAALASTPTFQQTFINSISTQAMDLCKKYNLYPSVMIAQAALESNWGRSELGKAPNYNLFGIKGSYNGKSVTMKTWEYSDSKGWYQINANFAKYPSHKESLEDNAKKLRNGPSWDSSYYKGAWRENAKTYKDATAWLQGRYATDNTYASKLNTLISSYNLTQYD”, for which the “soluble on expression in E. coli” value is listed as “soluble”.

In the case of “GPGSMALPRLQMFALASRIEELVLDSVTVHPHSVVAIGNAERQGNGQPPPPSNWVPLSDLASLQKLRRLDMTNCKGDFDCAGIARCCFLRSVHLSGCNVKDADVPHLAQLPCVEELLLSRTRITNVQALAAGKGLRIIQLSNAQVDSDGIDGLQTLPYLTRLDLSSTLVSDVNCLGQSQSLIYLNLAKTHVTSEGIAGLSRLLTLEHLMLNNNNIRDVSFLAESHSLKTLSLQSTLVDSAGLEGLGRLRTLQDLSLAHTRVTNVTKLQHCRNLWRLDLQGSFVDQAGIVGLERLPKLRVLVLSKTDVASLELILKSESLEQLEVKFSHVNERSAFFGVTKASALTDVTLTHCDVSDINNLGMCKELRLLNVWSSKVTSEGIAGLCDARSLQEVDLAETAVTDISPLLSCTKIQALILYRSSVRSLDGIGALQQLRRLDIAETSVSSIRSLSACQRLEILNLSNTAVDDDGFQGIGQAQSLKVVSMSFTAITQVGQLGQCSHLEELHAQSCPVTSEGLVGLERACCLVKLNLSYTKLQSGIQRLTNCRKLLKLNVKFTEVPYDEVAYVKRHLPSCRVMNDAAQRMAKDVTLLT”, the “soluble on expression in E. coli” value is “not soluble”.

Turning to “MVVIIPPKLSVSTLMGVLKGRSAIRLFNKFPHVRKKQWGNSFWARGYFVDTVGVNEEIIRRYVRHQDKQDQEHEAQLSLQMM”, the “soluble on expression in E. coli” value was “soluble”.

For “MGSDKIHHHHHHVTIEIRQLRYALMSADLRSFSGAASRLNVKQATLSRSVLQLEDRLGIKLFERTTRGAEPTETGKVFLETARRIITDLENLQTTARAVSYGEQGRFAVGYCSSLMAGHLKAAFSDYLTRFPDVQFDGVEGDPDKLCSDLRAGTIDVAIAPLGSEEQGIASRPVWSERLVAALYPEHPLLEASRIYWGDLRREIFVVPRKGIGQMIRNMITARLTGQGYRPNIITQETSLESVLSMVPVGRFITIATEASMGVAWPELQFRDIYDNGGTARIDFALYWREDNENPALQRFFTMINERYPA”, the “soluble on expression in E. coli” value is recorded as “not soluble”.

As to “MAAIINQRVEQGESSMGGAKPALLHRITGHVARINDVILLSKDEGVWTASDDRSVRLYLKRDNDQFWPSIHHFMPVAPTSLYYSEETYKLLVGLINGNVYEFSVADDFNSMTESRKWTCHAGPISGLGFALSSELIFSCSRDKSIVWHCSENSNKMGSYLLENSCTAMVIDLPFVFVGDHGGHVTVLRIVDNQPNLVSKLSAHTNAITSLTWDGNKKVLYSGSSDHLIIMWDIGGGRGEAYELNGHNGKVTTLCAAPAAKRLFSADEHGKLMCWDMNCKRVETPEWKTSDCCQKCNQPFFWNLQAMWQRKVVGLRQHHCRTCGSAVCGSCCDNWTTYPPMGYETKIRICNDCNARMKDNPQNFNLTPLAIPHEIHTGITAMHLQETLGLLVTSGQNRVIMIWDVRSVCSAPSGSQ”, the “soluble on expression in E. coli” value is given as “not soluble”.

For “EKVDIDLRDQVSLQHGAQIFTNYCLSCHSASGMRFNRLKDIGLTDEEIKKNLMFTTDNVGDVMHSAMNPKDAAKWFGAAPPDLTLIARSKGADYLYAYMRGFYKDPTRPSGWNNTVFDKVGMPHPLWEQQGVQAVELDAKGQPVMVKDEHGEMKPKLYWESTGLHSRRLPNGKVIQKEYDAYVRDLVNYLVYMGEPAQLQRKR”, the “soluble on expression in E. coli” value is “not soluble”.

As for “MLSCELYRMSTYSTFPAGVPVSERSLARAGFYYTGVNDKVKCFCCGLMLDNWKRGDSPTEKHKKLYPSCRFVQSL”, the “soluble on expression in E. coli” value is “soluble”.

For the sequence “GMKFSKFGQKFTQPTGISQLMDDLGDALKSDQPVNMLGGGNPAKIDAVNELFLETYKALGNDNDTGKANSSAIISMANYSNPQGDSAFIDALVGFFNRHYDWNLTSENIALTNGSQNAFFYLFNLFGGAFVNEHSQDKESKSVDKSILLPLTPEYIGYSDVHVEGQHFAAVLPHIDEVTHDGEEGFFKYRVDFEALENLPALKEGRIGAICCSRPTNPTGNVLTDEEMAHLAEIAKRYDIPLIIDNAYGMPFPNIIYSDAHLNWDNNTILCFSLSKIGLPGMRTGIIVADAKVIEAVSAMNAVVNLAPTRFGAAIATPLVANDRIKQLSDNEIKPFYQKQATLAVKLLKQALGDYPLMIHKPEGAIFLWLWFKDLPISTLDLYERLKAKGTLIVPSEYFFPGVDVSDYQHAHECIRMSIAADEQTLIDGIKVIGEVVRELYDNK”, the “soluble on expression in E. coli” value is on record as “soluble”.

In the case of “MGSDKIHHHHHHMKTKHILFGIFISSAVTSCNSIKGSGNVVTSIRPVQEFSGIISSGSFNMYLTQSAVQEVKIIADDNVLQYIETNVRDGILTVTFKDKVHIKNSTRLDIYVSGPVIEKINLEGSGNIQTTNRLHSNNLVLVLNGSGKMVAEDACETAIVQLNGSGNITLTGKAKNQTASVSGSGNVNASGFTTENTTASLSGSGSIGLYATESLHASLSGSGSIRYSGNPASVKKEVSGSGMVESR”, the “soluble on expression in E. coli” value was “not soluble”.

On to “MDQERARKRGITMGKQEFDGMSRISGLLTPELRATIEAVLAKLAAPGACNPDDQTPLVDDTPDADAVRRDTRSQAQRHHDGLLAGLRGLLASGELGQHRGLPVTVVVSTTLKELEAATGKGVTGGGSRVPMSDLIRMASNAHHYLALFDGAKPLALYHTKRLASPAQRIMLYAKDRGCSLEHHHHHH”, for which the “soluble on expression in E. coli” value is recorded as “soluble”.

Regarding “MLDFEKPLFEIRNKIDSLKESQEKNEVDLQDEIDMLEASLKRETTKVYTNLKPWDRVQIARLPERPTTLDYIPYIFDSFIELHGDRSFRDDPAMIGGIGYLDGKSVTVIGQQRGKDTKDNIYRNFGMAHPEGYRKALRLMKQAEKFNR”, the “soluble on expression in E. coli” value is “not soluble”.

For the sequence “MSLAQFVDWDLAAATAGTLGKTGPRVSYVEATAVVGDLRQLTDEAAEHVADFTGLRSQVSHPPVQVVDRRDWAATNVAGLREMIGPLVGRLAGDKQPSVLTEAIGSRITGVQAGTVLAYLSGRVLGQYEVFSGEPGQLLLIAPNIVEVERKLAADPRDFRMWVCLHEVTHRTQFTAVPWLRAYFLGEVQAFVDASSSGGEPLVERLRRGITVLADAVREPAGRTSVLDIVQTPAQKAVLDRLTALMTLLEGHAEFVMDGVGPQVIPSVERIRASFNRRRESGNPLEKALRRLLGVEVKLRQYAEGRSFVHGVVERVGMEGFNRVFASPLTLPRLAELSDPDAWVARVHGPAGPLPAGDEGHHHHHH”, the “soluble on expression in E. coli” value was “soluble”.

Turning to “MGSDKIHHHHHHMKLLLTSGGIQNDSQRRALVDLLGKPIEEAHALCIPTAVYGMKEGPYHAYLFITGTGSTPMCELGFQSVGVLELTALPILDESLWVPLVEQADVLLVNGGDPLFLNYWMKKSGLADRLPSLKAVYVGLSAGSMVLTPRIGHAFVEWTAPHTTTDETLGLVEFSIFPHLDHELLPENTLDEAVKWAADLTGPSYAIDDQTAIQVVDGVVKVISEGHWKRFD”, the “soluble on expression in E. coli” value is listed as “not soluble”.

As for “MGHHHHHHSHMARKLKGKIGSKGLKGALLRHKAKVKLVRNIESKQKHELRKKNSSANNKTVKRNQEFQKLNQGKVMPFEKDETLMLCGEGDFSFARSIVEQNYIESDNLIITSYDNSVNELKLKYPHTFEENYQYLKDLNIPIFFQIDVTKLVKSFKISKNNTWFKIINRLSDHRWGNKPLQNIVFNFPHNGKGIKDQERNIREHQDLIFNFFQNSLQLFNLINTKIQNDTLRYTQGYDLNEDTPQAKKLTAEGYGNIILSLFDGEPYDSWQIKLLAKKNGLTLSRSSKFQWENFP”, the “soluble on expression in E. coli” value is “soluble”.

Turning to “MHTNMWVVDNVVERKKYYPQLQEAAKLLRENEAIAFPTETVYGLGANAMNDEAIAKIFEAKGRPSDNPLIVHIGTKSQLDGIVKEIPPVAEKLMEHFWPGPLTIILPRKEGISEKVTAGLHTVGVRMPDHPVALALIEEANVPVAAPSANRSGRPSPTLASHVYEDLNEKIAGIVDGGATGVGVESTVIDCTSAVPTILRPGGITKEQLEAVIGTVSLDPALKDEKEKPKSPGMKYTHYAPKAPLSIVEGSREFIQRLVDEKKEEGFKVGVLTTEEYHHIYNADVVLSCGVRSDLASVATKLYDVLRTFDASEVDVIFSESFPNEGIGNAIMNRLTKAAGHHIITE”, the “soluble on expression in E. coli” value is “not soluble”.

Consider “MGSDKIHHHHHHMLLIDTHAHVLSPDRTTFPRDYGLDMAWARGDLSAQQLVAAMDESSISKTLLIQAYSAYRYDNSYLESVIGEFPDRFAGVCMVDPLARDVSDRLTSLIVDRKFAGTRIVIVQPEPRLDDPAMAPFYETCAELRTPLCVLTIPPKLKELEVPLSQWPSLQVVVEHLGLIHTASGDSVSKERPLLDLARFPNCILKFSTISLRVAAAFEGGAQGQFERLIDAFGAQRLMWGSDYPSTPEGGIPGLVNEMHQALDFLPHHDLALLSGEAACRIWSTLRPVSSRGLA”, for which the “soluble on expression in E. coli” value was “not soluble”.
